Article PMC7703929, “Unraveling the mechanism of recognition of the 3’ splice site of the adenovirus major late promoter intron by the alternative splicing factor PUF60”

T1: SF1 1-260 (human, UniProt Q15637 1-260, C171A)
T1 sequence: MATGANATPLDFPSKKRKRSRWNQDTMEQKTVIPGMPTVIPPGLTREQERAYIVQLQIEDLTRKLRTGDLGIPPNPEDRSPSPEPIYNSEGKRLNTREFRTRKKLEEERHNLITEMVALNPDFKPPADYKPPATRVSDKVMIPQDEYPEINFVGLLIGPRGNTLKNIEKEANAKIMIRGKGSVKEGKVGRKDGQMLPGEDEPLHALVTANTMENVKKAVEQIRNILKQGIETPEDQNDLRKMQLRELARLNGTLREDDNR


Experiments:
SF1 1-260 = target: T1, SF1 1-260; test: EMSA; SF1 up to 40 uM, RNA 5 uM; FA: 50 mM Tris-HCl, 150 mM NaCl, 20 uM EDTA, pH 8.0, room temperature, 10 nM probe; EMSA: same buffer, 5 uM RNA, 5.5% native gel in 0.5X TBE at 4 C; crystals: 0.1 M Tris-HCl pH 8.7, 25% PEG 4000, 5-10 mM BaCl2, 20 C; conditions: protein: recombinant; tags: His tag removed by TEV; N-terminal G left
PUF60 RRMs+UHM;SF1 1-260 = PUF60 RRMs+UHM;SF1 1-260 (human;human, UniProt Q9UHX1;Q15637 118-559;1-260, C129S;C255A;C487A|C171A); test: EMSA; further upward shift with both proteins, suggests ternary complex; FA: 50 mM Tris-HCl, 150 mM NaCl, 20 uM EDTA, pH 8.0, room temperature, 10 nM probe; EMSA: same buffer, 5 uM RNA, 5.5% native gel in 0.5X TBE at 4 C; crystals: 0.1 M Tris-HCl pH 8.7, 25% PEG 4000, 5-10 mM BaCl2, 20 C; conditions: protein: recombinant;recombinant; tags: His tag removed by TEV; N-terminal GRGS left;His tag removed by TEV; N-terminal G left; chain copies: 2;1
PUF60 RRMs+UHM [1] = target: T2, PUF60 RRMs+UHM (human, UniProt Q9UHX1 118-559, C129S;C255A;C487A); test: EMSA; two conformations at 20 uM PUF60; RNA 5 uM; FA: 50 mM Tris-HCl, 150 mM NaCl, 20 uM EDTA, pH 8.0, room temperature, 10 nM probe; EMSA: same buffer, 5 uM RNA, 5.5% native gel in 0.5X TBE at 4 C; crystals: 0.1 M Tris-HCl pH 8.7, 25% PEG 4000, 5-10 mM BaCl2, 20 C; conditions: protein: recombinant; tags: His tag removed by TEV; N-terminal GRGS left; chain copies: 2
PUF60 RRMs = PUF60 RRMs (human, UniProt Q9UHX1 118-316, C129S;C255A); test: fluorescence anisotropy; Kd1, two-site sequential model; FA: 50 mM Tris-HCl, 150 mM NaCl, 20 uM EDTA, pH 8.0, room temperature, 10 nM probe; EMSA: same buffer, 5 uM RNA, 5.5% native gel in 0.5X TBE at 4 C; crystals: 0.1 M Tris-HCl pH 8.7, 25% PEG 4000, 5-10 mM BaCl2, 20 C; conditions: protein: recombinant; tags: His tag removed by TEV; chain copies: 2; label: 5'-fluorescein
PUF60 RRMs+UHM [2] = target: T2, PUF60 RRMs+UHM; test: as above; conditions: protein: recombinant; tags: His tag removed by TEV; N-terminal GRGS left; chain copies: 2; label: 5'-fluorescein

T2 sequence (Q9UHX1 118-559 C129S/C255A/C487A): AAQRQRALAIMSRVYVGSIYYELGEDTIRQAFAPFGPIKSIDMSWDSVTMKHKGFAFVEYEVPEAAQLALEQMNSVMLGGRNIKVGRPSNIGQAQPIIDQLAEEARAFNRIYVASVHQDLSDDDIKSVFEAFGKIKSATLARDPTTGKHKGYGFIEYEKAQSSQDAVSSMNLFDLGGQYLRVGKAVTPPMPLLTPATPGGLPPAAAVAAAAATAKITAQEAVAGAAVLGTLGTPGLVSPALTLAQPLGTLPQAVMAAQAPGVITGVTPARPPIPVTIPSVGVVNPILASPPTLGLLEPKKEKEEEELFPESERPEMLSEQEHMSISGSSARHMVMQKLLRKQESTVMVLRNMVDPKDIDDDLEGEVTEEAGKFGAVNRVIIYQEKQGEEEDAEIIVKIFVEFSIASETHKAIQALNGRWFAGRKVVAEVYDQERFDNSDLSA
Chain of PUF60 RRMs+UHM;SF1 1-260 (Q9UHX1 118-559 C129S/C255A/C487A, one chain of several): as the sequence (Q9UHX1 118-559 C129S/C255A/C487A) above
Chain of PUF60 RRMs (Q9UHX1 118-316 C129S/C255A): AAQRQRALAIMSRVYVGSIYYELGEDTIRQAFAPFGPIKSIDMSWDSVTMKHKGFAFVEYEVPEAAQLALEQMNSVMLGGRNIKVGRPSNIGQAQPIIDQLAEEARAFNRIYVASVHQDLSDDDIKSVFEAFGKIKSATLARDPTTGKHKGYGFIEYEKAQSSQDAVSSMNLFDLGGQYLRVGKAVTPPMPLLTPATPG

Binder	binding result (SF1 1-260)	binding result (PUF60 RRMs+UHM;SF1 1-260)	binding result (PUF60 RRMs+UHM [1])	Kd (PUF60 RRMs) [µM]	Kd (PUF60 RRMs+UHM [2]) [µM]
GAUGUCAUACUUAUCCUGUCCCUUUUUUUU (ssRNA) [AdML3' RNA]	binds	binds	binds		
GAUGUCAUACUUAUCCUGUCCCUUUUUUUU (ssDNA, deoxyribose backbone with A, U, C, G bases (dU)) [*AdML3']				3.64 ± 3.6	4.61 ± 1.19
